Source: publication PMC8360832, “Butyryl/Caproyl-CoA:Acetate CoA-transferase: cloning, expression and characterization of the key enzyme involved in medium-chain fatty acid biosynthesis” (Bioscience Reports, 2021)

Substrate: CCCC(=O)SCCNC(=O)CCNC(=O)[C@H](O)C(C)(C)COP(=O)(O)OP(=O)(O)OC[C@H]1O[C@@H](n2cnc3c(N)ncnc32)[C@H](O)[C@@H]1OP(=O)(O)O
Experiment: purified protein
Assay type: biochemical, Clostridium tyrobutyricum
Conditions: 200 mM sodium acetate, 100 mM potassium phosphate pH 7, 25 °C

B1: BEY8-CoAT (BCoAT) (Clostridium tyrobutyricum DIVETGP) (protein)
chain: MSFEELYKSKVVSADEAVSHIKSGDKIVFGHACAEPQVLLNALVKNKEKYKNVELYHMIPKGETNYAEPGVEKYIHDNSFFTGKGTSEAIQEGRADFIPVFFSEIPRLFKKGYIPVDVALIEVSKPDEHGYCSFGVSNDYIHAGAECAKLVIAEVNENMPRVFGNNFIHVSDIDYIVESSRPVVEMQPSKIGDVEKAIGKYCASLVEDGSTLQLGIGAIPDAVLLFLKDKKDLGIHSEMISDGVVELVKAGVITNKKKTLHPGKIVVTFLMGTKKLYDFIDNNPEVESHPVDYVNNPTVIMKNCKMVCINSCVEIDLMGQICSESIGLKQISGVGGQIDFTRGASMAEDGKSIIAIPSTAAHGKVSRIVPFLNQGAAITTSRNDVHYVITEYGIAQLRGKTLKQRARELIK
notes: full-length, His tag (N-terminal), pET28a, E. coli BL21 (DE3), Ni-NTA; gene 1233 bp, 46 kDa
B1 was tested, and the Km was 370 ± 4.1 µM, the kcat was 0.232 ± 0.0117 s⁻¹ and the kcat/Km was 628.3 ± 3.33 M⁻¹ s⁻¹.
